According to paper PMC7347289:

Molecular target: Sambucus nigra agglutinin (Sambucus nigra)
Experiment: localized surface plasmon resonance

Chain of Sambucus nigra agglutinin (Sambucus nigra) (Q41358 29-289 limits assumed, chain 1 of 2): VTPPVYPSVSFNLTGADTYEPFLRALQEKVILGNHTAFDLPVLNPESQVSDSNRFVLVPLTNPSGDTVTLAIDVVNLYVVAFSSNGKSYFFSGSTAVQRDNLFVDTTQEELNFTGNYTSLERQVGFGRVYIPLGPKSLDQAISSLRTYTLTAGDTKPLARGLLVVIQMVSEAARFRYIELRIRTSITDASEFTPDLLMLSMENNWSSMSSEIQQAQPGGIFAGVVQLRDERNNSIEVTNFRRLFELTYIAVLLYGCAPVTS
Chain of Sambucus nigra agglutinin (Sambucus nigra) (Q41358 309-570 limits assumed, chain 2 of 2): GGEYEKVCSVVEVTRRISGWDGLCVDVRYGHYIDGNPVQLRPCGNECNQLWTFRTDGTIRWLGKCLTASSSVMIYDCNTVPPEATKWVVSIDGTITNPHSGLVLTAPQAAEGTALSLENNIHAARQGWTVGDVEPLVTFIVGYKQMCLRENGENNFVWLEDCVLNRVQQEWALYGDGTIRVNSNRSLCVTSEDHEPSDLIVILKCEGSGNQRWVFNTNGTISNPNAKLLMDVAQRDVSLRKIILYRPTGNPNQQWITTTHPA

Substance: α-1 acid glycoprotein (from UniProt P02763 19-201) (natural protein)
- Kd: 31 µM
